Data set [1] concerns the target Rad51 (wild type);Rad52 (wild type);RPA (wild type) (Saccharomyces cerevisiae;Saccharomyces …, UniProt P25454;P06778;P22336;P26754;P26755 1-400;1-471;1-621;1-273;1-122, ||). The experiment in a line: bead pull-down.
Data set [2] concerns the target RPA (wild type);Rad52 (wild type) (Saccharomyces cerevisiae;Saccharomyces …, UniProt P22336;P26754;P26755;P06778 1-621;1-273;1-122;1-471, |). The data set is described as follows: bead pull-down.

Sequence of RPA (wild type);Rad52 (wild type) (P22336 whole entry, chain 1 of 4): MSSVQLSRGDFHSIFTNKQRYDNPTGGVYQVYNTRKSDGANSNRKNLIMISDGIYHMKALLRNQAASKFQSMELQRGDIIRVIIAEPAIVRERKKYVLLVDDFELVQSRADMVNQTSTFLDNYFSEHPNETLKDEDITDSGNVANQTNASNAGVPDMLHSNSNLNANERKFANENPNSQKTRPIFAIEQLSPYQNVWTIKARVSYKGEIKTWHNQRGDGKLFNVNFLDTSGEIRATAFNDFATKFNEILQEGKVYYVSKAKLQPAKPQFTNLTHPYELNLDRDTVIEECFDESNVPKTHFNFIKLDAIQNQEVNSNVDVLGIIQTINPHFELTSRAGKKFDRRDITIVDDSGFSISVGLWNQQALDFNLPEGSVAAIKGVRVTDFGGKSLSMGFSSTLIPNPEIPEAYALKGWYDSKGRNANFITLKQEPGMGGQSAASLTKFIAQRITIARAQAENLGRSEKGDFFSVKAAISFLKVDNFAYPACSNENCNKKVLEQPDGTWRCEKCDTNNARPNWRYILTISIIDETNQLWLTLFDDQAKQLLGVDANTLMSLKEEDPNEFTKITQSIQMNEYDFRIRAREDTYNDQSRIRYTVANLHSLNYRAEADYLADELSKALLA
Sequence of RPA (wild type);Rad52 (wild type) (P26754 whole entry, chain 2 of 4): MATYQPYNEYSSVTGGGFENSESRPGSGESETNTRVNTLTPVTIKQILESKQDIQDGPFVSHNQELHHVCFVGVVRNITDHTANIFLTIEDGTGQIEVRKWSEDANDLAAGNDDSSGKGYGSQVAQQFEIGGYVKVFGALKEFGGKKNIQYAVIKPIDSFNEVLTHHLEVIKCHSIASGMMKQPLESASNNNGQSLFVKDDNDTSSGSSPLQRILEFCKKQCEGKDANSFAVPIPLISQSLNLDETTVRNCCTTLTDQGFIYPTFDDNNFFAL
Sequence of RPA (wild type);Rad52 (wild type) (P26755 whole entry, chain 3 of 4): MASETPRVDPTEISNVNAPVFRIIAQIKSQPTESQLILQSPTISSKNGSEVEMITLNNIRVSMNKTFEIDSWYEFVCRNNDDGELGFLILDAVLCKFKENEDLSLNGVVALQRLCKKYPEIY
Sequence of RPA (wild type);Rad52 (wild type) (P06778 whole entry, chain 4 of 4): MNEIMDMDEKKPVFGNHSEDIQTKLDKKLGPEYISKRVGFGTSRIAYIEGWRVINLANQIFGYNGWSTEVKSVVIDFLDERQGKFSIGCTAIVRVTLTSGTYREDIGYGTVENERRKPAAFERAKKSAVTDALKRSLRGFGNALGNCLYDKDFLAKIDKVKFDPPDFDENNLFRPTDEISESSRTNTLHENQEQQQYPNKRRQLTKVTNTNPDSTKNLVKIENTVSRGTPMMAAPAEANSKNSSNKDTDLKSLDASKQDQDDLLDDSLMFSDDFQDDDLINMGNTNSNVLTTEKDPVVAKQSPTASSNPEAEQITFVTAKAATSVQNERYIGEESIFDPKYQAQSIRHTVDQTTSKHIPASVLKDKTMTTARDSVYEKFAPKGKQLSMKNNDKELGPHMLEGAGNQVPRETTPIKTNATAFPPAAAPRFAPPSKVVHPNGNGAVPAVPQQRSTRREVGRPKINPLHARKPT

B1: 74-nt biotinylated ssDNA oligo (ssDNA)
DNA: TTTTTTGTAAAACGACGGCCAGTGCCAAGCTTGCATGCCTGCAGGTCGACTCTAGAGGATCCCCGGGTACCGAG
modifications: 5' biotin
On to B1, for which the binding result in data set [1] and in data set [2] was “binds” in each case.

For the origin of these results see paper PMC4190069.
